Data reported in PMC10127586.

How the values were obtained:
Assay in all cases: SPR
pPGT121-YTE = target: pPGT121-YTE
pPGT121-LS = target: pPGT121-LS
pVRC07-523-LS = target: pVRC07-523-LS
pPGT121 = target: pPGT121

Measured: Kd

Rhesus macaque FcγR IIIa-1 (from UniProt A3RFZ7 21-254) (receptor)
> 20 µM: all assays above

Rhesus macaque FcγR IIIa-3 (from UniProt A3RFZ7 21-254) (receptor)
> 20 µM: all assays above

Rhesus macaque FcγR IIa-2 (receptor)
> 20 µM: all assays above

Rhesus macaque FcγR IIa-4 (receptor)
> 20 µM: all assays above

Rhesus macaque FcγR IIb-1 (receptor)
> 20 µM: all assays above
